Experimental data from patent US8026218 (UNIVERSITY OF ARIZONA, dated 2011).
Where two headings read alike, the source gives them in different places. Square brackets hold non-standard residues; d marks the D form. Primed or numbered codes have the meaning given here. Ends that are not written are not given here. * marks the point of attachment. Glc = O-glucosyl on Ser side chain (Ser(OGlu)/Ser(OGlc)); NH(3,5-(CF3)2-benzyl) = FC(F)(F)c1cc(CN*)cc(C(F)(F)F)c1; OBzl(3,5-(CF3)2) = FC(F)(F)c1cc(CO*)cc(C(F)(F)F)c1; Glc″ = glucosyl on the serine side-chain oxygen; Dmt = Cc1cc(O)cc(C)c1C[C@H](N)C(=O)O; Nle = CCCC[C@H](N)C(=O)O

Columns and labels:
human δ opioid receptor [1] = target: T1, human δ opioid receptor (human, UniProt P41143 1-372); assay: ratio of Ki at rMOR to Ki at hDOR
T1 construct: whole, on cells; Assayed as membrane preparations of transfected cells; also called hDOR; DOR
T1 sequence (P41143 whole entry, stated change not applied): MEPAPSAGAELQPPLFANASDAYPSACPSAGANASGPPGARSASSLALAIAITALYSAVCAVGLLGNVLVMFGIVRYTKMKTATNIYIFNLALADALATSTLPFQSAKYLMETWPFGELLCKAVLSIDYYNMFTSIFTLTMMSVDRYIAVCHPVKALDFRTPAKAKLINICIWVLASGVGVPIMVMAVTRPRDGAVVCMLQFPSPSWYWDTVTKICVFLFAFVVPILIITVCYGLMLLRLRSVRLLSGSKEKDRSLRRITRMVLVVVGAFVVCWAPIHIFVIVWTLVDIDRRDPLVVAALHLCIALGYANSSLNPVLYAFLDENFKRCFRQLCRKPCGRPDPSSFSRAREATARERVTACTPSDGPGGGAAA

guinea pig NK1 receptor [2] = target: guinea pig NK1 receptor (guinea pig, UniProt P30547 1-407); assay: cell-based or functional assay
Target sequence in this assay (P30547 whole entry): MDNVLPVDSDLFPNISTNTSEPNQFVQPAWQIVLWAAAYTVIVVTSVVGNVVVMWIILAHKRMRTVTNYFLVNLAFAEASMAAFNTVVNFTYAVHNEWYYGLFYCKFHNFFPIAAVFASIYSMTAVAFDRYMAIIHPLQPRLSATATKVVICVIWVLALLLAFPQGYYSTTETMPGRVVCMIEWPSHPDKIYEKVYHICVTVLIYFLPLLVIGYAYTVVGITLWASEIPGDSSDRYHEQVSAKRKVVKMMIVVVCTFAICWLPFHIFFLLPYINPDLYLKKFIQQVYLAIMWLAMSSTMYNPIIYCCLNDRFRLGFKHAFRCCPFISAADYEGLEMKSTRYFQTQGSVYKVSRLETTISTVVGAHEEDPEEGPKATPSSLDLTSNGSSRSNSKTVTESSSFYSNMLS

[3] = target: µ opioid receptor of the guinea pig isolated ileum (guinea pig); assay: cell-based or functional assay
human δ opioid receptor [4] = target: T1, human δ opioid receptor; assay: cell-based or functional assay
rat µ opioid receptor [5] = target: T2, rat µ opioid receptor (rat, UniProt P33535 1-398); assay: cell-based or functional assay
T2 sequence (P33535 whole entry): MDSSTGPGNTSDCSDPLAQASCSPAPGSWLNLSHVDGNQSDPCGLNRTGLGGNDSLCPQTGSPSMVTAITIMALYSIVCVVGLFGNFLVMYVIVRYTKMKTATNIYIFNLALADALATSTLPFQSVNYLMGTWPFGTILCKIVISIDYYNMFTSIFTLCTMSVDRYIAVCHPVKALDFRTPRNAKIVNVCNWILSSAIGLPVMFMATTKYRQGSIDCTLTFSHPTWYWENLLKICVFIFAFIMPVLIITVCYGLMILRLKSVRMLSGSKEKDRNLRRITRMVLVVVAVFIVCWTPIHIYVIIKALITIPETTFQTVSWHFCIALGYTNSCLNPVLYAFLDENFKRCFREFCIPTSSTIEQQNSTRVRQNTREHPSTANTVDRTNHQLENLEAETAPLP

rat µ opioid receptor [6] = target: T2, rat µ opioid receptor; assay: competition vs [3H]DAMGO, membranes of rMOR-transfected HN9.10 cells
human δ opioid receptor [7] = target: T1, human δ opioid receptor; assay: competition vs [3H]DPDPE, membranes of hDOR-transfected HN9.10 cells
rat NK1 receptor [8] = target: T3, rat NK1 receptor (rat, UniProt P14600 1-407); assay: competition vs [3H]substance P, membranes of rNK1-transfected CHO cells
T3 construct: whole, on cells; Assayed as membrane preparations of transfected CHO cells; also called rNK1; rNK-1
T3 sequence (P14600 whole entry): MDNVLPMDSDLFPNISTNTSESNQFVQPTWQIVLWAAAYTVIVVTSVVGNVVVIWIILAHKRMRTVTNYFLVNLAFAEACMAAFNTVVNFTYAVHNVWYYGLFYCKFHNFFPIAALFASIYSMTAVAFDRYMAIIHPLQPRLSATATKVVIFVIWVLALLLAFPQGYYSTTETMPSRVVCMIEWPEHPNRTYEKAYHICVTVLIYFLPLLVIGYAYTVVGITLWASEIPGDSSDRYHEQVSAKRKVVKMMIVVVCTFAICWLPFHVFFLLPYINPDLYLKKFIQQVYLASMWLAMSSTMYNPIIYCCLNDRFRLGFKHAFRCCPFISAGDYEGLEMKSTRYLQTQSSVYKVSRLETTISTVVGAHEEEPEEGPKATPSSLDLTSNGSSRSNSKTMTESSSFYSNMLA

human NK1 receptor [9] = target: T4, human NK1 receptor (human, UniProt P25103 1-407); assay: competition vs [3H]Substance P, hNK1 CHO cell membranes
T4 construct: whole, on cells; membrane preparations of the transfected cells were used; also called hNK1; human neurokinin-1 receptor

human δ opioid receptor [10] = target: T5, human δ opioid receptor (human, UniProt P41143 1-372); assay: competition vs [3H]DPDPE, hDOR cell membranes
T5 construct: whole, on cells; membrane preparations of the transfected cells were used; also called hDOR; DOR
T5 sequence (P41143 whole entry, stated change not applied): as the sequence (P41143 whole entry, stated change not applied) above

[11] = target: T6, µ opioid receptor of the guinea pig isolated ileum (guinea pig, UniProt P97266 1-98); assay: cell-based or functional assay
human δ opioid receptor [12] = target: T5, human δ opioid receptor; assay: cell-based or functional assay; remark: listed apart in the source
guinea pig NK1 receptor [13] = target: guinea pig NK1 receptor (guinea pig, UniProt P30547 1-407); assay: cell-based or functional assay; remark: listed apart in the source
Target sequence in this assay (P30547 whole entry): as the sequence (P30547 whole entry) above

rat µ opioid receptor [14] = target: T7, rat µ opioid receptor (rat, UniProt P33535 1-398); assay: cell-based or functional assay; remark: listed apart in the source
T7 sequence (P33535 whole entry): as the sequence (P33535 whole entry) above

rat µ opioid receptor [15] = target: T7, rat µ opioid receptor; assay: competition vs [3H]DAMGO, rMOR cell membranes
[16] = target: T6, µ opioid receptor of the guinea pig …; assay: cell-based or functional assay; remark: listed apart in the source
human δ opioid receptor [17] = target: T5, human δ opioid receptor; assay: cell-based or functional assay; remark: listed apart in the source
rat µ opioid receptor [18] = target: T7, rat µ opioid receptor; assay: cell-based or functional assay; remark: listed apart in the source
rat NK1 receptor [19] = target: T8, rat NK1 receptor (rat, UniProt P14600 1-407); assay: competition vs [3H]Substance P, rNK1 CHO cell membranes
T8 construct: whole, on cells; membrane preparations of the transfected cells were used; also called rNK1; rNK-1
T8 sequence (P14600 whole entry): as the sequence (P14600 whole entry) above

rat µ opioid receptor [20] = target: T7, rat µ opioid receptor; assay: competition vs [3H]DAMGO, rMOR cell membranes; remark: listed apart in the source
rat NK1 receptor [21] = target: T8, rat NK1 receptor; assay: competition vs [3H]Substance P, rNK1 CHO cell membranes; remark: listed apart in the source
human NK1 receptor [22] = target: T4, human NK1 receptor; assay: competition vs [3H]Substance P, hNK1 CHO cell membranes; remark: listed apart in the source
human NK1 receptor [23] = target: T4, human NK1 receptor; assay: as above; remark: listed apart in the source
human δ opioid receptor [24] = target: T5, human δ opioid receptor; assay: competition vs [3H]DPDPE, hDOR cell membranes; remark: listed apart in the source

T6 sequence (P97266 whole entry): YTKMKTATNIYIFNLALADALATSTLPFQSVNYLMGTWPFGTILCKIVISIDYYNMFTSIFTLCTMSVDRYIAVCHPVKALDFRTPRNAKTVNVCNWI
T4 sequence (P25103 whole entry): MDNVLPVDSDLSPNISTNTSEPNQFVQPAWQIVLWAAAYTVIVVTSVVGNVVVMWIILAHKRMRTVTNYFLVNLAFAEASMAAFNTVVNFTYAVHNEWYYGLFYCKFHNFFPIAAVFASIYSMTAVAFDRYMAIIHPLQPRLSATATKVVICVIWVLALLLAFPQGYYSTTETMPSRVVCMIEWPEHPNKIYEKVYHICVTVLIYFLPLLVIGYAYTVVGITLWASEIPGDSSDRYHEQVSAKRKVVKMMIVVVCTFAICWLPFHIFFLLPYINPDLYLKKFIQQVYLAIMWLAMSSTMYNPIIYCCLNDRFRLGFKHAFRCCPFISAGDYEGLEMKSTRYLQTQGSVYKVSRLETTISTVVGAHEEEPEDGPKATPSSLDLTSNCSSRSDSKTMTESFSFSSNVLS

B1: H-Tyr-D-Ala-Gly-Phe-D-Phe-Pro-Leu-Trp-O-3,5-Bzl(CF3)2 (peptide)
peptide: H-Y[dA]GF[dF]PLW-{OBzl(3,5-(CF3)2)}
modifications: also: TFA salt
notes: TFA salt; also called TY007
Which results are given for B1?
Ki(µ)/Ki(δ) (human δ opioid receptor [1]): 4.1; Substance P GPI agonist (A50), contraction relative to KCl (guinea pig NK1 receptor [2]): 0 % at 1 µM; Substance P GPI antagonist Ke (guinea pig NK1 receptor [2]): 69.6 nM; GPI (µ) opioid agonist, % at 1 µM [3]: 9 % at 1 µM; [35S]GTP-γ-S binding EC50 (human δ opioid receptor [4]): 16.8 nM; [35S]GTP-γ-S binding Emax (human δ opioid receptor [4]): 26%; [35S]GTP-γ-S binding LogEC50 (human δ opioid receptor [4]): -7.78; [35S]GTP-γ-S binding EC50 (rat µ opioid receptor [5]): 345 nM; [35S]GTP-γ-S binding Emax (rat µ opioid receptor [5]): 22%; [35S]GTP-γ-S binding LogEC50 (rat µ opioid receptor [5]): -6.46; Ki (rat µ opioid receptor [6]): 381 nM; LogIC50 (rat µ opioid receptor [6]): -6.09; Ki (human δ opioid receptor [7]): 93 nM; LogIC50 (human δ opioid receptor [7]): -6.7; IC50 (rat NK1 receptor [8]): 66.7 nM; LogIC50 (rat NK1 receptor [8]): -7.22

B2: H-Tyr-D-Ala-Gly-Phe-Gly-Pro-Leu-Trp-O-3,5-Bzl(CF3)2 (peptide)
peptide: H-Y[dA]GFGPLW-{OBzl(3,5-(CF3)2)}
modifications: also: TFA salt
notes: TFA salt; also called TY006
B2 was tested. Which “Ki(µ)/Ki(δ)” value (human δ opioid receptor [1]) did it give?
Its value is 0.75.

And the “Substance P GPI agonist (A50), contraction relative to KCl” value (guinea pig NK1 receptor [2])?
The value was 0 % at 1 µM.

What about the “Substance P GPI antagonist Ke” value (guinea pig NK1 receptor [2]) of the same binder?
Its value is 5.4 nM.

And the “GPI (µ) opioid agonist IC50” value [3]?
Its value is 384 nM.

And the “[35S]GTP-γ-S binding EC50” value (human δ opioid receptor [4])?
Its value is 50.2 nM.

What about the “[35S]GTP-γ-S binding Emax” value (human δ opioid receptor [4]) of the same binder?
Its value is 35%.

What about the “[35S]GTP-γ-S binding LogEC50” value (human δ opioid receptor [4]) of the same binder?
Its value is -7.3.

And the “[35S]GTP-γ-S binding EC50” value (rat µ opioid receptor [5])?
The value was 41.7 nM.

And the “[35S]GTP-γ-S binding Emax” value (rat µ opioid receptor [5])?
Its value is 39%.

What about the “[35S]GTP-γ-S binding LogEC50” value (rat µ opioid receptor [5]) of the same binder?
The value was -7.38.

And the Ki (rat µ opioid receptor [6])?
Its Ki is 27 nM.

What about the LogIC50 (rat µ opioid receptor [6]) of the same binder?
The LogIC50 was -7.24.

And the Ki (human δ opioid receptor [7])?
The Ki was 36.1 nM.

And the LogIC50 (human δ opioid receptor [7])?
The LogIC50 was -7.11.

And the IC50 (rat NK1 receptor [8])?
Its IC50 is 15.6 nM.

And the LogIC50 (rat NK1 receptor [8])?
The LogIC50 was -7.83.

B3: TyrDAlaGlyPheNleProLeuTrpNHBn(CF3)2 (peptide)
peptide: YAGFXPLW
modifications: D-Ala at 2; Nle at 5 (written X); C-terminal NH-3,5-Bzl(CF3)2 amide
notes: also called TY045
Which Ki (human NK1 receptor [9]) does the source give for B3 here?
Its Ki is 0.0028 nM.

What about the Ki (human δ opioid receptor [10]) of the same binder?
Its Ki is 1 nM.

What about the “GPI/LMMP IC50” value [11] of the same binder?
The value was 463 nM.

And the “GTP binding EC50” value (human δ opioid receptor [12])?
Its value is 5 nM.

What about the “GTP binding Emax” value (human δ opioid receptor [12]) of the same binder?
The value was 125%.

What about the “GPI/LMMP SP antagonist Ke” value (guinea pig NK1 receptor [13]) of the same binder?
Its value is 40.8 nM.

B4: TyrDAlaGlyPheNleSer(OGlu)LeuTrpNHBn(CF3)2 (peptide)
peptide: Y[dA]GF[Nle]S(Glc″)LW-{NH(3,5-(CF3)2-benzyl)}
notes: also called TY044
Which Ki (human NK1 receptor [9]) does the source give for B4 here?
The Ki was 1.3 nM.

And the “GPI/LMMP IC50” value [11]?
Its value is 249 nM.

What about the “GTP binding Emax” value (human δ opioid receptor [12]) of the same binder?
Its value is 162%.

What about the “GTP binding EC50” value (rat µ opioid receptor [14]) of the same binder?
The value was 380 nM.

What about the “GTP binding Emax” value (rat µ opioid receptor [14]) of the same binder?
Its value is 85%.

What about the “GPI/LMMP SP antagonist Ke” value (guinea pig NK1 receptor [13]) of the same binder?
The value was 18.4 nM.

And the Ki (rat µ opioid receptor [15])?
The Ki was 3370 nM.

B5: TyrDAlaGlyPheNleProSer(OGlu)TrpNHBn(CF3)2 (peptide)
peptide: Y[dA]GF[Nle]PS(Glc)W-{NH(3,5-(CF3)2-benzyl)}
notes: also called TY041
Which results are given for B5?
GPI/LMMP IC50 [16]: 517 nM; GTP binding EC50 (human δ opioid receptor [17]): 7.9 nM; GTP binding Emax (human δ opioid receptor [17]): 62%; GTP binding EC50 (rat µ opioid receptor [18]): 18 nM; GTP binding Emax (rat µ opioid receptor [18]): 42%; Ki (rat NK1 receptor [19]): 14 nM; Ki (rat µ opioid receptor [20]): 8 nM; Ki (rat NK1 receptor [21]): 14 nM; GPI/LMMP IC50 [11]: 517 nM; GTP binding EC50 (human δ opioid receptor [12]): 7.9 nM; GTP binding Emax (human δ opioid receptor [12]): 62%; GTP binding EC50 (rat µ opioid receptor [14]): 18 nM; GTP binding Emax (rat µ opioid receptor [14]): 42%; GPI/LMMP SP antagonist Ke (guinea pig NK1 receptor [13]): 1.8 nM; Ki (rat µ opioid receptor [15]): 8 nM

B6: DmtDAlaGlyPheNleProSer(OGlu)TrpNHBn(CF3)2 (peptide)
peptide: [Dmt][dA]GF[Nle]PS(Glc)W-{NH(3,5-(CF3)2-benzyl)}
notes: also called TY056
Which results are given for B6?
GTP binding EC50 (rat µ opioid receptor [18]): 44.9 nM; GTP binding Emax (rat µ opioid receptor [18]): 66%; Ki (rat µ opioid receptor [20]): 1.9 nM; Ki (human NK1 receptor [22]): 0.0017 nM

B7: TyrDAlaGlyPheNleProLeuSer(OGlu)TrpNHBn(CF3)2 (peptide)
peptide: Y[dA]GF[Nle]PLS(Glc)W-{NH(3,5-(CF3)2-benzyl)}
notes: also called TY055
B7 was tested. Which Ki (rat NK1 receptor [19]) did it give?
Its Ki is 34 nM.

And the Ki (human NK1 receptor [22])?
The Ki was 0.052 nM.

B8: DmtDAlaGlyPheNleProLeuTrpNMeBn(CF3)2 (peptide)
peptide: YAGFXPLW
modifications: Dmt at 1 (written Y); D-Ala at 2; Nle at 5 (written X); C-terminal NMe-3,5-Bzl(CF3)2 amide
notes: also called TY052
How did the Ki (human NK1 receptor [23]) turn out when B8 was run?
The Ki was 0.21 nM.

And the Ki (human δ opioid receptor [24])?
Its Ki is 0.46 nM.
